Here are results for one substance from patent US20210214418A1.

This test deals with chemokine receptor CXCR5 (overexpressed on CXCR5-CAR T cells) (UniProt P32302). Description: cell-based or functional assay.
Chain of UniProt P32302 (P32302 whole entry): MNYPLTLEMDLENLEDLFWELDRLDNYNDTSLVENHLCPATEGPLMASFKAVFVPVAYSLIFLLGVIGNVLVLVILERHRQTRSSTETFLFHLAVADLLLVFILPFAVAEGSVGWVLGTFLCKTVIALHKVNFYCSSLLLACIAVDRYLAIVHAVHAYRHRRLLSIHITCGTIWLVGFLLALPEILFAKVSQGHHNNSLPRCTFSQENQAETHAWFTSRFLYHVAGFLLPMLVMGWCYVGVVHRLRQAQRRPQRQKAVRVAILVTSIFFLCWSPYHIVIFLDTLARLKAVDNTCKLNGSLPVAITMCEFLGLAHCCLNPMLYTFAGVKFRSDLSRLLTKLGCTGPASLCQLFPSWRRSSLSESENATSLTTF

Turning to “CXCL13 stably transfected in A549 cells (A549-CXCL13) (from UniProt O43927 23-109) (ligand)”, the radio-isotope signal at the CXCL13 positive tumor site, EGFR-CXCR5-CAR compared with EGFR-CAR, 72 h is 3 fold and the radio-isotope signal at the CXCL13 positive tumor site, EGFR-CXCR5-CAR compared with EGFR-CAR, 168 h is 7 fold.
